Laboratory results taken from the supplement of paper PMC9170038.

System: MS2 coat protein
Assay: apparent KD of MS2 coat protein; designed switch direction (-1 OFF switch, 1 ON switch): 1; higher = weaker reporter binding
How it was run: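 An oligonucleotide input, 200 uM small-molecule ligand, or no input was present during titration of SNAP-549-labelled MS2 coat protein, which was doubled from 0.7 or 1.5 nM to 3 µM. Designed RNA switches had been transcribed on Illumina chips by stalled E. coli RNA polymerase. Apparent KD per design is the median over clusters of curves fitted to normalised cluster fluorescence.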

[1] = input ligand: microRNA oligo, concentration not stated

| Sequence | apparent KD of MS2 coat protein (input ligand: FMN 200 uM) [nM] | apparent KD of MS2 coat protein [1] [nM] | apparent KD of MS2 coat protein (input ligand: none) [nM] | apparent KD of MS2 coat protein (Eterna round: R95, input ligand: FMN 200 uM) [nM] | apparent KD of MS2 coat protein (Eterna round: R95, input ligand: microRNA oligo, concentration not stated) [nM] | apparent KD of MS2 coat protein (Eterna round: R95, input ligand: none) [nM] |
| --- | --- | --- | --- | --- | --- | --- |
| GCGGAGACGUCAGGAUAUCCAUGGAAGACACAUGAGGAUCACCCAUGUGGGAGGGAAACCAGGAGGGAGAAGGGACGGAAACGC [ssng2 v2 d] (Eterna round: R96, puzzle: Same State NG 2) | 10 | 9.63 | 14.1 |  |  |  |
| GCGGAGAGGUAAGGAUAUCCAUGGCAUAGACAUGAGGAUCACCCAUGUAGGAGACGAAUUAGGAGGGAGAAGGUACCGGGACGC [AK SSNG2-V2-19.1] (Eterna round: R96, puzzle: Same State NG 2) | 120 | 81.2 | 179 |  |  |  |
| GCGUGAGAGAUAGGAUAUCGUGUACCUACAUGUGACAUGAGGAUCACCCAUGUGGUAAGUAUGAGCGAGAAGGAUCCGAUAUGU [salish99_SSNG2_r04_1003] (Eterna round: R96, puzzle: Same State NG 2) | 28.2 | 54.7 | 63.5 |  |  |  |
| GCUACCAAAGAAGCCAACAUGAGGAUCACCCAUGUAUGUUGGCAGGAUAUCGAUUGCAAAGCGAUCGAGAAGGGCUAAGGUAGC [Mat - Same State NG 3 - JL Mod - D88] (Eterna round: R96, puzzle: Same State NG 3) | 147 | 214 | 204 |  |  |  |
| GCUACCAAAUAAGCCAACAUGAGGAUCACCCAUGUAUGUUGGUAGGAUAUCGUAUGCAAAGCAUACGAGAAGGGCUAAGGUAGC [Mat - Same State NG 3 - JL Mod - D80] (Eterna round: R96, puzzle: Same State NG 3) | 57.1 | 40.4 | 52.5 |  |  |  |
| GCUACCAAUAAAGCCAACAUGAGGAUCACCCAUGUAUGUUGGUAGGAUAUCGUUUGCAAAGCAAACGAGAAGGGCUAAGGUAGC [Mat - Same State NG 3 - JL Mod - D76] (Eterna round: R96, puzzle: Same State NG 3) | 39.1 | 28.2 | 43.9 |  |  |  |
| GCUACCAUUGAAGCCAACAUGAGGAUCACCCAUGUAUGUUGGUAGGAUAUCGUUUGCUUUGCAAACGAGAAGGGCUAAGGUAGC [JL SSNG3 1.27] (Eterna round: R96, puzzle: Same State NG 3) | 72.2 | 57.4 | 77.1 |  |  |  |
| GCUAGGAAAGAAGCCAACAUGAGGAUCACCCAUGUAUGUUGGUAGGAUAUCGUUUGCAAAGCAAACGAGAAGGGCUAACCUAGC [Mat - Same State NG 3 - JL Mod - D73] (Eterna round: R96, puzzle: Same State NG 3) | 202 | 203 | 184 |  |  |  |
| GCUAGGAAUAAAGCCAACAUGAGGAUCACCCAUGUAUGUUGGUAGGAUAUCGUUUGCAAAGCAAACGAGAAGGGCUAACCUAGC [Mat - Same State NG 3 - JL Mod - D68] (Eterna round: R96, puzzle: Same State NG 3) | 85.8 | 62.7 | 71.1 |  |  |  |
| GCUAGGAUAUGACGAGGAUCACCCGUUAGAAGGAGCGAAGGCUAGGAUAUGACGAGGAUCACCCGUUAGAAGGAGCUGUACUCU [pwkr ssNG3 DX 2xF5 +2xFMN.10] (Eterna round: R96, puzzle: Same State NG 3) | 188 | 64.9 | 80.3 |  |  |  |
| GCUCGAUGAGCGUUUUACAUGAGGAUCACCCAUGUUCGUGGGCAGGAUAUUUACGUGCGGUGUGUAGAGAAGGGCCCAUCGAGC [SameState NG3 #69] (Eterna round: R96, puzzle: Same State NG 3) | 87.1 | 247 | 529 |  |  |  |
| GCUCGAUGAGCUGUUUACAUGAGGAUCACCCAUGUAAAUGGGCAGGAUAUUUACGUGCUUUGUGUAGAGAAGGGCCCAUCGAGC [SameState NG3 #76] (Eterna round: R96, puzzle: Same State NG 3) | 32.4 | 103 | 235 |  |  |  |
| GCUCGCACGAUGACCGACAUGAGGAUCACCCAUGUGUGUCGGUAGGAUAUCUAUAUUAAGGAUUUAGAGAAGGGCCCAGCGAGC [SameState NG3 #20] (Eterna round: R96, puzzle: Same State NG 3) | 68.3 | 68.5 | 69.3 |  |  |  |
| GCUCGUGGUAUUGUCUACAUGAGGAUCACCCAUGUGGGUGCGGAGGAUAUCUACGUGUCUCAUGUAGAGAAGGUCGUCACGAGC [SameState NG3 #100] (Eterna round: R96, puzzle: Same State NG 3) | 119 | 119 | 102 |  |  |  |
| GCUCUGGCGGUAGGAUAUCUAGGAUAUGGGAAAGACUAAGUCUGUAGGUCACCUAACCCAGAAGGAGAGAAGGACCCUGUAAGG [pwkr ssNG2 2FMN + F9.23] (Eterna round: R96, puzzle: Same State NG 2) | 21 | 17.2 | 18.6 |  |  |  |
| GCUGCAAUAAACGCCUACAUGAGGAUCACCCAUGUAUGUAGGCAGGAUAUCGUAUGCAAAGCAUACGAGAAGGGCCGUAGUAGC [Mat - Same State NG 3 - JL Mod - D36] (Eterna round: R96, puzzle: Same State NG 3) | 26.4 | 44.4 | 56.6 |  |  |  |
| GCUGGAAACCACAUGAGGAUCACCCAUGUUCCGGAAACGGCACAGGAUAUCUGUCCGAAAAGGUCAGAGAAGGGUGAAACCAGC [Fiskers NG3ss - 83] (Eterna round: R96, puzzle: Same State NG 3) | 263 | 114 | 188 |  |  |  |
| GCUGGAAACCACAUGAGGAUCACCCAUGUUCCGGAAACGGCGCAGGAUAUCUGUCCGAAAAGGUCAGAGAAGGGUGAAACCAGC [Fiskers NG3ss - 80] (Eterna round: R96, puzzle: Same State NG 3) | 600 | 387 | 346 |  |  |  |
| GCUUCACAUGAGGAUCACCCAUGUCGUCGGAGUCGAGGAUAUGGUAACUGUAAACAGUUGCCAGAAGGCGAGGAGC [SS1 - Son of Teenbexe v10] (puzzle: Same State 1) |  |  |  | 23.2 | 24.4 | 26 |
| GCUUCGGCGGUAGGAUAUCUAGGAUAUGGGAAAGACUAAGUCUGUAGGUCACCUAACCCAGAAGGAGAGAAGGACAGGUUCGCC [pwkr ssNG2 2FMN + F9.35] (Eterna round: R96, puzzle: Same State NG 2) | 415 | 1.71 | 1.98 |  |  |  |
| GGAAGGAGGUCAGGAUAUGAAUGGAUGGGACAUGAGGAUCACCCAUGUAAUAGAAGAAAUCUACAUUAGAAGGGACAAGGAAGG [AK SSNG2-V2-5] (Eterna round: R96, puzzle: Same State NG 2) | 105 | 83.2 | 130 |  |  |  |
